Experiment: label from the status in PepcDB records

Sequence	protein production
MEKAGMHRTLNYRLRFDIPLVGKDCEYALVQDLPASVYISTDELDDLQRLKRLNAIYPKFVNIEVATERAQPFSVLLRGTPKITESLALPVHFRYHAPSDKRLAATVAIPLPELYLNCPMADSALIENELVARPDKLYCLNAPESRFDENHIKDGQPTTMANLERCNWRRVHVDCQLKMPLRAEIPVGHASAYGPVLCGTILLGWSLALWTIIHSMANTRRINQRLNEQRLLQQKVK	failed
MLGLVLLYVGIVLISNGICGLTKVDPKSTAVMNFFVGGLSIICNIVVITYSALHPTAPVEGAEDIAQVSHHLTSFYGPATGLLFGFTYLYAAINHTFGLDWRPYSWYSLFVAINTIPAAILSHYSDMLDDHKVLGITEGDWWAIIWLAWGVLWLTAFIENILKIPLGKFTPWLAIIEGILTAWIPAWLLFIQHWV	failed
MRPSAIVLAGGKEAWAERFGVGSKALVPYRGRPMVEWVLEALYAAGLSPVYVGENPGLVPAPALTLPDRGGLLENLEQALEHVEGRVLVATGDIPHLTEEAVRFVLDKAPEAALVYPIVPKEAVEARFPRTKRTYARLREGTFTGGNLLLLDKSLFRKALPLARRVVALRKRPLALARLVGWDVLLKLLLGRLSLAEVEARAQRILGVEARALVTPYPEVGVDVDREEDLVS	not failed
MILFDGMYSLGGVILSLLALMGSIYINKKDYEKYPFGKKMIEPLIVIIKSLAIFIMCIYSLTGSIKDLINGGNEVQYGYALIYALISTLGCGIAYFFLKKKGKAINSSLINIESSQWLMDALLSMGVLVGFLIANIIKHTEFIWFNRYLDPLMVIICSSVFIKMPIKSFGDGLKELLEFKADDSITLEIDKLVEGIEREYNFEDTITRVSKTGNDLRIEIDFIYNEESNIKALDEMDSLREKIFNSLSHINYEKWLNVSFTKDKKWAI	failed
EDDYYYPSVKLEFVTVKAGTDGSIQTLIPDNGEALTVSKDRTGSAISPNTSRRVMSNYETLSNGHTATAVIYSLQSLVTPTPKPADDPTYRDGLKHDPVDVVSIWLGRGYLNMILNLKVNGGKQHVFGIVEDLSEFETNGTVNMLLYHDANGDEEYYNRRAYLSVPLDKYADAENPGQKITIKFKYYTYDKDGTAIESGKYCNPGFEYVPDKN	not failed
MEKYIHSVEDYHRLISYLENNLNYEDSVVNHVIYVIAKTGMRYGEIIGLTNNDTSLDEHYLHTYKRYNTSTWKWTNAKNESSKRYIPIDDKIVAALSNMIKERERINSLLRIKNKEEFLFFHYGLEHGIPSVATVNKALKKILKKLDIEPIITTKGLRHTYGSYLLHNNIDMGVVARILGHKDIQMLIQVYGHTLTEKIDKEFKEVEQIMNRILEHHHHHH	failed
RLPEVAHLLARVHNSELLHRMLRKVGGQSVRPQDFIQQYLQDLPDDLRHHPLMARVLDELRGTAPTLPATDYRVCHGDLNHKNWLLSDRQQLYLVDWDSARFADPASDISMLLCEYVPLSDWQQWLSEYGETMTTALRTRVVWYAKINLLLNIKDNYYRNQYHQMNHEIIFLEELSQYEV	failed
MSLKYIIGMDVGTTATKGVLYDINGKAVASVSKGYPLIQTKVGQAEEDPKLIFDAVQEIIFDLTQKIDGKIAAISWSSQMHSLIGLGSDDELLTNSITWADNCAKSIVQDAKNRGFAQQIYRKTGMPMHPMAPIYKLLWLKNKKTEVFSQAQKWIGIKEYIIFRLTGKLVTDTTMAAGTGILNLKTLTWDQELLDILKIKKEQLPKIAQPTKVIFPIKTEYVKKLGIDSDTKIILGASDGYLSTIGVNAIDSDHCALNVGTSGAIRTIVDQPKIDPSASYFCYPADKTHYLLGGPVNNGGIVFNWARQTLFDADETPQDFLDVAQTAPAGSRNLIFLPYLGGERAPIWDANARGSFVGLTRMHQKPEMARAVIEGIIFNLYDAASNLIKNTKKPVAINATGGFLKSDFVRQLCANIFNVPIVTMKEQQSGTLAAMFLARQALGLNQDLSEIGQFAQADKVYFPNPKEAATYQKLFPLYCEIRNALAASYGKFSNINEGHHHHHH	not failed
MLSKSKTTKALLYSTAALSLFAASHVHADETSHWTARSVDQIKADISVNDNQQTYTVQYGDTLGSIVEAMGIDMNVLANIKEITNIDLIFPGTVLTTTYNADNQAVSVKVETPSSETSDTPVVAESNLTTNEVTVNGQSVVASDLSAPVETVSLTATQAPAKEESTQVVSEVTEAIASASDTPAYADTEQPVADAIDHVTSSAEETLAEEEAPATETSAQAETTEVAATSEAASEAASEVPAEQLAAASEAPESSEAPAEQPAAAPESSEAPAEQPAATSEAASEAPASVVPVATSEAVSEAPAVSEVPAEQLAAASEAPESSEVPAEQPAAAPESSEAPAEQPAATSEAAPATSEAPAEQLAATSEAASTPNTYPVGQCTWGAKSLAPWAGNNWGNAKDWIASAQAAGHSVGTTPVAGAIAVWPNDGGGYGHVAYVTSASGVNSIQVMESNYAGNMLIGNYRGTFDPTSSAHGGSVYYIYP	failed
MSDFEKQLWKAADKLRKNIDAAEYKHIVLGLIFLRYISDAFEELYEKLQQGEGEYAGADPEDRDEYKAENVFFVPAISRWPYLQSEAKKPDIGKSVDNAMDAIEKENPLLRGVLPKVFARGNLDPTNLGGLIDLVSNVALGDAKSRSADVLGHVFEYFLGEFALAEGKKGGQFYTPRSVVELLVEMLEPYNGRVFDPCCGSGGMFVQSEKFVADHQGKINDISIYGQESNQTTWRLAKMNLAIRSIDSSQVKWNNEGSFLNDVHKDLKADYVIANPPFNDSDWSGDLLRKDGRWKYGVPPAGNANYAWIQHFLYHLGPSGQAGFVLAKGSLTSKSSGEGDIRKELVEARLVDCIVNLPPKLFLNTQIPASLWFLSRNKANGKHRNRTDEILFIDARNMGHLINRRTREFSPEDIQQIAGTYHKWRNPEGNYEDVKGFCNSAPIERVRELGYVLTPGRYVGLPDDEDNFDFNERFSALKAEFEEQLKEEERLNLRIAENLKKVKPA	failed
SLGELFAVFNEKLTIPEQEALMFLYAYMPTGDVTDYTGDYYLENVRLSDQARREMPWGKEIPDDVFRHFVLPIRVNNENLDDSRRVFYNELKDRVKNLSLHDAVLEVNHWCHEKVIYTPSDARTSAPLASVKTAYGRCGEESTFTVAALRSVGIPARQVYTPRWAHTDDNHAWVEAWVDGKWYFFGACEPEPVLNLGWFNAPASRGMLMHTKVFGRYTGQEEIMYETPNYTEINVIDNYAPTAKGSVLVTDAEGQPVADATVEFKVYNYAEFYTVATKHTDRSGHASLTAGKGDMLVWASKDGRFGYSKLSFGKDNELKITLDKNASETYSLPLDIVPPAEGANLPEVTPEQRTENDRRMAQEDSIRNAYVATFITEEQARTFAKENKLDETETVRLLIASRGNHQTLTDFLSDAVKADKAGQAISLLKVVSAKDLRDVSPEVLNDHLNNSGLPASEDFCSNVLNPRVANEMITPYKAFFRKEIPASEAEAFRKNPQALVEWCKKEITINNELNSQRIPMSPMGVWKARVADEKSRNIFFVSMARSLGIPAWIDEVTGKIQYRTFNDNNLKNGKVYDVDFEAAQQTQAPTGTLVARYRPIPSLSDPKYYSHFTLSKFRNGTFQLLNYDEGDVDMGGGATWSNLLKNGARLDTGYYMMVTGTRMASGAVLANVTFFTIEEGKTTTVDLVMRESKDQVQVIGNFNSESTYLPIGTSEPQSILQTCGRGYYVVAVLGAGQEPTNHALRDIAALSGEFEKWGRKMVLLFPSEEQYKKFRPSEFPGLPSTITYGIDVDGAIQKQIAESMKLPNSTILPMFIIGDTFNRVVFVSQGYTIGLGEQLMKVIHGEG	not failed
MSWLFSTLVFFLTLLTAGIALYLITARRYQSSNSVANSYDQWTEDGILEFYWGEHIHLGHYGSPPQRKDFLVAKSDFVHEMVRWGGLDKLPPGTTLLDVGCGIGGSSRILARDYGFAVTGITISPQQVQRAQELTPQELNAQFLVDDAMALSFPDNSFDVVWSIEAGPHMPDKAIFAKELMRVLKPGGIMVLADWNQRDDRQKPLNFWEKPVMQQLLDQWSHPAFSSIEGFSELLAATGLVEGEVITADWTKQTLPSWLDSIWQGIVRPEGLVRFGLSGFIKSLREVPTLLLMRLAFGTGLCRFGMFRALRADTVRSSAEQTSAIKVAQK	failed
MRYRNTALFVLLAAVWGSAFVAIKAGVGSPDAPGYFFDAPVLFAAVRYDIAAVLMFAYVAWATDRWRPRGRTEWLAVAVGSAFIIAGYHALLFLGQRGTTSAAAAVIVSLSPVLTTAFARALLADERLSVLGLAGMGVGFLGVVVLSQPTPADIAASRFEALVFAAALCFALGSVLTRRLDTDLPIETMEAWSMAGGALLMHALSLALGETVSGAPPTDALVALGYLAVVASAAGFLVYFDLLGRLGAIEINLVSYVVPVFAALVGVLLLGERVDTPTAAGFLLVFAGFVIIKRRAIRAEIADSYWP	failed
MHVFYSEERRGNLLILREGEVKHFRVRRIEKDEEFGVIHEGKIYVCKVRREDKREISCEIVEELETKLPPKDITLYQSVTVDLKTMDTIVRQATELGVLTFVPIISERSFQKEEAILKKTEKWKRIVIEAMKQSRRPIPMEIKKPVRLSDLIPESEENIILDNFYEGVKPKDVNLEAKTYSVVVGPEGGFSKRESQILREKGFKSVLLEPYTLRTETAVVSIVSILMNF	not failed
MDNPCPTCGQELEWTGQYHCSACTVDYCKVGFCPECGSELEKLQACGAANYFCNQCNELKSKSKIRFVFQPLNGNSQLEHHHHHH	not failed
MFLLSGDPCFKTPPSTAKSISIPGQDSSLQLTCKGGGTSSGGSSTNSLTGSRPPKARPTILSSGLPEEPDQNLSSPEEVFHSGHSRNSSYASQQSKISGYSTEHSRSSSLSDLTHRRNTSTSSSASGGLGMTVEGPEGSEREHRPPEKPPRPPRPLHLSDRSFRRKKDSVESHPTWVDDTRIDADAIVEKIVQSQDFTDGSNTEDSNLRLFVSRDGSATLSGIQLATRVSSGVYEPVVIESH	failed
MIKLLLLDVDGTLTDGSLYFDENFHEIKAFNVKDGLGMTLWQKLGKKIAIITGRTSIMVKKRMESLGVQFVFMGVENKNTVIERLKKDLQLSAQEIACVGDDYNDLGMFKACALSFAPFDAHPLLKSKAYKVLQNSGGKGAVREAIDYLLTLEGLQDEALKLYL	failed
MSDYLDMLASFGVSSAHPGGMSLSKAVLAKAGIDPEQPILDAGCGTGQTAAYLGQLLFPVTALDADPVMIDKARQRFKKEQLSIPAVRSPLEEMPFQSESFACVLTESVLSFTNIRSALQEIRRILKPGGMLVAIEVCLKEGNALTDEAKKEITEFYGFTALYDEDEWVNVLREEGFSKIDIIPVVLEDAGDPDDAVEMDLSPAISDKDYETMEKHLHYLEKYRDSLDHIIFISHL	failed
MSRQAEDLMVRTLSDASSLFGKERYKKALEKLDKAEKLAEKTKRTDILCRVLLQKGAVMNSMGKPDEGQDLYDKALDIYRTSNLNEQESSVLKHTLSNTFSELAKHFKMVDSIENAEKCYLNEIKVYEILLEKDPEDEDSNLEIARVFKAIGDLYEYFKPEKMDPETERQYYEKILDIREKAFELLPDSETYIYDLAHALGKLVDYYIIRQDYKSAIQFQERVVEVMEELIDLLANWKDLKAKSNAYDKLGSLYAEIGEEELAQEQYSKALEYYGMIFDDELWPLSVKAMLASELMERGKTLLLLKKYESAKESMDVALDFLEGVDKEEMEDSTEESLDLASVILGEGYEEESEDSGYLAELAGIFREYAKTLSDLNRNEEAEEFTAKSEKILRKLA	failed
MKQPTLAVIMTCHNRRNTTLACLQALYQQKNHFDVYLTDDGSTDGTAEFIKAEYPDVKIFQGDGNLFWVGGMHLAFGEAIKNQYDYYLWLNDDTFLEADALEKLLQVHENLAVEGYGQSIVVGSTQDPITKQATYGGAVKSKKWYSNKFEFLEPTSDVQKCDAMYGNCVLIPHSVTLKVGNIDTAFIHSLGDLDYALRARNLGLEHHHHHH	failed
MIDFLDVQKETPRIRIAIDRVGVKNIKFPLKIHDDFAFLTLNLFVDVPADRKGADMSRAVESIQKVINAGSYGERIGDIGIAICDEALSRFNYSEKAQCEVNIQYYRRSGERYLEYRMYVETAKDRKQIMKNEIGISYVTMTACPCAMETTRALISMDNPDISDAISAIPTITHNQRNVTKLTVDNRSKMITVWDLADVMERVQGKPLDSLLKRVEEGRLVYSAHRNPKFVEDVVREIAYEAARVLGVPDEATIKVSSESDESIHPHNAYAEIDTTAGELRKLHLH	not failed
